From the Human Domainome abundance scans (Beltran et al. 2025)

B1: Nuclear receptor subfamily 4 group A member 2, residues 260 to 336; numbered along this chain, P43354 (parent)
chain: EGLCAVCGDNAACQHYGVRTCEGCKGFFKRTVQKNAKYVCLANKNCPVDKRRRNRCQYCRFQKCLAVGMVKEVVRTD
B2: Transcription elongation factor A N-terminal and central domain-containing protein, residues 30 to 77; numbered along this chain, Q8N8B7 (parent)
chain: LTELETIYVTKEHLQETDVVRAVYRVLKNCPSVALKKKAKCLLSKWKA

Variants of: B1
Experiment: abundance fitness (aPCA) (normalised: wild type 0, dead -1); higher = more abundant; growth selection in yeast, the domain comes from the species named
Conditions: Homo sapiens

Abundance fitness: each site, then its substitutions
V67: E -0.017; F -0.449; G -0.261; H -0.088; I 0.058; K 0.086; L -0.078; M -0.035; R -0.134; S -0.097; T -0.06; W -0.706
G68: A -0.26; C -0.489; D -0.403; E -0.63; F -0.436; I -0.481; L -0.589; M -0.085; N -0.126; R -0.314; S -0.287; V -0.836
M69: A -0.191; C -0.247; D -0.704; E -0.448; F -0.042; G -0.463; I -0.618; L -0.07; R -0.64; S -0.627; V -0.285; W -0.235
V70: A 0.06; E 0.062; F -0.095; G -0.017; I 0.102; K -0.208; L -0.023; M -0.055; P -0.197; R -0.013; S -0.053; W -0.255
K71: A 0.008; D -0.296; E -0.046; F -0.258; G -0.081; I -0.19; L -0.078; M -0.352; P 0.141; Q 0.33; R -0.054; W -0.194; Y 0.114
E72: A -0.133; C -0.344; D 0.11; F -0.267; G -0.067; I -0.173; K 0.154; L -0.468; M -0.099; N 0.024; P 0.116; S -0.012; T 0.092; V -0.268; W -0.276
V73: A -0.258; C -0.131; D -0.105; E -0.063; F 0.02; G -0.024; H 0.014; L -0.065; M -0.032; R -0.099; S -0.305; T 0.274; W -0.104
V74: A -0.1; C -0.098; D 0.131; F -0.148; G -0.013; I 0.091; K -0.025; L -0.052; R -0.118; S -0.101; W -0.208
R75: A -0.01; C 0.057; D -0.136; E 0.094; G 0.033; I -0.017; L 0.015; M 0.019; N 0; Q 0.065; S 0.063; T 0.214; V 0; W -0.103; Y -0.112
T76: A 0.117; C 0.109; D 0.098; E 0.161; F -0.079; I -0.007; K -0.041; L -0.228; M -0.166; N 0.221; P -0.004; Q -0.152; R 0.015; S -0.014; V -0.019; W -0.085; Y 0.168
D77: A -0.006; C -0.061; E 0.117; F -0.229; G -0.042; I -0.347; K -0.1; L -0.101; M -0.092; P 0.163; R -0.3; S -0.124; V -0.122; W -0.211

Variants of: B2
Experiment: as above
Conditions: Homo sapiens

Abundance fitness: each site, then its substitutions
L1: C -0.162; F -0.001; G 0.363; M 0.235; Q 0.202; R -0.202; S -0.501; T 0.251; V -0.379; W -0.554; Y -0.521
T2: A -0.385; C -0.501; D 0.107; E 0.27; F -0.483; G -0.078; I -0.369; K 0.11; L -0.389; M -0.461; N 0.036; P -0.629; Q -0.177; R 0.011; S 0.198; V -0.813; W -0.711; Y -0.078
E3: C 0.159; D -0.209; F 0.477; G -0.416; H -0.696; I -0.112; K -0.195; L -0.07; M -0.045; N -0.001; P -0.45; Q -0.222; R -0.24; S -0.149; T -0.464; V -0.102; W 0.305; Y -0.207
L4: A 0.17; C -0.51; D 0.257; E 0.173; F -0.044; H 0.025; I -0.174; K 0.272; M 0.022; N 0.469; P 0.279; Q 0.142; R 0.11; S 0.216; T 0.269; V -0.23; Y -0.325
E5: A -0.235; C -0.897; D -0.186; G -0.775; H -0.346; I -0.48; K -0.393; L -0.28; M -0.643; N -0.587; P -0.663; Q -0.498; R -0.769; S -0.809; T -1.17; V -0.446; Y -0.604
T6: A -0.355; C -0.262; D 0.094; E 0.126; F -0.23; G -0.024; H -0.147; I -0.891; K -0.059; L -0.616; M -0.107; N -0.514; Q 0.08; R -0.074; S 0.12; Y -0.513
I7: A 0.131; C -0.541; D 0.203; E 0.3; F -0.323; G 0.224; H -0.212; L -0.07; M 0.244; N 0.081; P 0.091; Q 0.015; R 0.008; S 0.147; T 0.192; V 0.006; W -0.631; Y -0.422
Y8: A 0.274; C -0.489; E 0.448; F -0.339; G 0.156; L -0.233; N -0.043; R -0.094; S -0.388; V -0.008
V9: C -0.172; D 0.276; E 0.318; F 0.045; G 0.061; H 0.107; I -0.163; K 0.251; L -0.229; M -0.098; N 0.232; P -0.027; Q 0.265; R 0.155; S 0.085; T 0.087; W -0.277; Y -0.147
T10: A -0.017; C -0.566; D -0.31; E -0.139; F -0.547; G -0.164; H -0.23; I -0.657; K -0.198; L -0.674; M -0.143; N -0.546; Q 0.117; R -0.041; S -0.121; V -0.18; W -0.315; Y -0.771
K11: A 0.095; C -0.337; D -0.021; E 0.145; F -0.747; G -0.022; I -0.08; L -0.014; M -0.246; N -0.627; Q -0.184; R -0.348; S -0.016; T -0.555; Y -0.599
E12: A -0.492; C -0.79; D -0.184; F -0.742; G -0.598; H -0.606; I -0.707; K 0.138; L -0.792; M -0.538; N -0.34; P -0.25
